T1: human FcγRIIA-R131 α subunit extracellular domain-6His-GST fusion (human, UniProt P12318 34-217)
T1 construct: also called FcγRIIA-Arg131; not shown: glutathione S-transferase (GST)
T1 sequence: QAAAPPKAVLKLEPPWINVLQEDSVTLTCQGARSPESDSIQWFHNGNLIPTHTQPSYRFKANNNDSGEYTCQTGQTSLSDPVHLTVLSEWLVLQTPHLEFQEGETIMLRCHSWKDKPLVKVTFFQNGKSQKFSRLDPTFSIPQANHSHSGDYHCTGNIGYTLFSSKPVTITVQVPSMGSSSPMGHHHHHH

T2: human FcγRIIB α subunit extracellular domain-6His-GST fusion (human, UniProt P31994 43-217)
T2 construct: not shown: glutathione S-transferase (GST)
T2 sequence: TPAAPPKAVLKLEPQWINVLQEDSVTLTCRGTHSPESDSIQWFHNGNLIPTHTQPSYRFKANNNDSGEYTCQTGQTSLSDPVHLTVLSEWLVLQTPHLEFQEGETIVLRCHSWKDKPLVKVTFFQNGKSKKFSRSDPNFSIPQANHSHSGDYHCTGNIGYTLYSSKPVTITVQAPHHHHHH

B1: E27 IgG1 variant K326(345)D (antibody)
heavy: not shown
light: DIQLTQSPSSLSASVGDRVTITCRASKPVDGEGDSYLNWYQQKPGKAPKLLIYAASYLESGVPSRFSGSGSGTDFTLTISSLQPEDFATYYCQQSHEDPYTFGQGTKVEIKRTVAAPSVFIFPPSDEQLKSGTASVVCLLNNFYPREAKVQWKVDNALQSGNSQESVTEQDSKDSTYSLSSTLTLSKADYEKHKVYACEVTHQGLSSPVTKSFNRGEC
notes: also called IG2 211
B2: E27 IgG1 variant K334(353)S (antibody)
heavy: not shown
light: B1 light
B3: E27 IgG1 variant K326(345)N (antibody)
heavy: not shown
light: B1 light
notes: also called IG2 209
B4: E27 IgG1 variant K334(353)Q (antibody)
heavy: not shown
light: B1 light
B5: E27 IgG1 variant N276(289)K (antibody)
heavy: not shown
light: B1 light
B6: E27 IgG1 variant K338(358)M (antibody)
heavy: not shown
light: B1 light
B7: E27 IgG1 variant K334(353)R (antibody)
heavy: not shown
light: B1 light
B8: E27 IgG1 variant N276(289)Q (antibody)
heavy: not shown
light: B1 light
notes: also called IG2 233
B9: E27 IgG1 variant K326(345)Q (antibody)
heavy: not shown
light: B1 light
notes: also called IG2 210
B10: E27 IgG1 variant P331(350)S (antibody)
heavy: not shown
light: B1 light
notes: also called IG2 198
B11: E27 IgG1 variant N286(303)D (antibody)
heavy: not shown
light: B1 light
notes: also called IG2 238
B12: E27 IgG1 variant P331(350)N (antibody)
heavy: not shown
light: B1 light
notes: also called IG2 199
B13: E27 IgG1 variant K334(353)D (antibody)
heavy: not shown
light: B1 light
notes: also called IG2 140
B14: E27 IgG1 variant R292(309)N (antibody)
heavy: not shown
light: B1 light
notes: also called IG2 83
B15: E27 IgG1 variant P331(350)K (antibody)
heavy: not shown
light: B1 light
B16: E27 IgG1 variant N286(303)S (antibody)
heavy: not shown
light: B1 light
notes: also called IG2 237
B17: E27 IgG1 variant K334(353)E (antibody)
heavy: not shown
light: B1 light
B18: E27 IgG1 variant P331(350)E (antibody)
heavy: not shown
light: B1 light
notes: also called IG2 200
B19: E27 IgG1 variant K334(353)N (antibody)
heavy: not shown
light: B1 light
B20: E27 IgG1 variant K326(345)S (antibody)
heavy: not shown
light: B1 light
B21: E27 IgG1 variant R292(309)H (antibody)
heavy: not shown
light: B1 light
notes: also called IG2 81
B22: E27 IgG1 variant K326(345)E (antibody)
heavy: not shown
light: B1 light
notes: also called IG2 212
B23: E27 IgG1 variant N286(303)Q (antibody)
heavy: not shown
light: B1 light
notes: also called IG2 23
B24: E27 IgG1 variant R292(309)K (antibody)
heavy: not shown
light: B1 light
notes: also called IG2 80
B25: E27 IgG1 variant K334(353)L (antibody)
heavy: not shown
light: B1 light
notes: also called IG2 221
B26: E27 IgG1 variant K334(353)V (antibody)
heavy: not shown
light: B1 light
notes: also called IG2 220

Experiments:
Assay in all cases: ELISA, IgG:IgE hexamers on receptor-GST
[1] = target: T1, human FcγRIIA-R131 α subunit …
[2] = target: T2, human FcγRIIB α subunit extracellular …
[3] = target: T3, human FcγRIIIA-F158 α subunit extracellular domain-6His-GST fusion (human, UniProt P08637 17-208)
T3 construct: also called FcγRIIIA-Phe158; not shown: glutathione S-transferase (GST)
T3 sequence (P08637 other isoform, or with tags, fused parts or gaps, form in doubt): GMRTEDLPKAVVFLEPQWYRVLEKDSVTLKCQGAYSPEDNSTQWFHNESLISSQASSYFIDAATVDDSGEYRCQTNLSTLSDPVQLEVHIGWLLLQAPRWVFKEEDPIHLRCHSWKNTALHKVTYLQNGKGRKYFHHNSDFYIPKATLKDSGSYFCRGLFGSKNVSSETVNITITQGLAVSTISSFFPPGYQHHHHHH

| Binder | ratio to native IgG1 [1] | ratio to native IgG1 [2] | ratio to native IgG1 [3] |
| --- | --- | --- | --- |
| B1 | 1.68 | 2.01 | 1.36 |
| B2 | 1.01 | 1.03 | 1.19 |
| B3 | 1.04 | 1 | 1.27 |
| B4 | 1.08 | 1.1 | 1.23 |
| B5 | 0.81 | 0.77 | 0.61 |
| B6 | 0.99 | 0.93 | 0.49 |
| B7 | 1.15 | 1.33 | 0.68 |
| B8 | 1.09 | 0.79 | 0.91 |
| B9 | 1.36 | 1.41 | 1.15 |
| B10 | 0.91 | 0.78 | 0.58 |
| B11 | 1.41 | 1.23 | 0.98 |
| B12 | 0.86 | 0.65 | 0.23 |
| B13 | 0.51 | 0.4 | 1.13 |
| B14 | 0.54 | 0.29 | 0.88 |
| B15 | 0.94 | 0.71 | 0.33 |
| B16 | 1.72 | 1.38 | 1.32 |
| B17 | 0.74 | 0.72 | 1.3 |
| B18 | 1.06 | 0.91 | 0.42 |
| B19 | 1.16 | 1.29 | 1.11 |
| B20 | 1.44 | 1.62 | 1.37 |
| B21 | 0.21 | 0.12 | 0.92 |
| B22 | 1.34 | 1.47 | 1.26 |
| B23 | 1.52 | 1.13 | 0.96 |
| B24 | 0.71 | 0.75 | 1.15 |
| B25 | 1.05 | 1.09 | 1.38 |
| B26 | 1.13 | 1.09 | 1.34 |

— patent US7183387 (Genentech, dated 2007)
